Experimental data from paper PMC3679732, “Cloning and characterization of bifunctional enzyme farnesyl diphosphate/geranylgeranyl diphosphate synthase from Plasmodium falciparum” (Malaria Journal, 2013).

Legend:
Experiment in all cases: purified protein
Type in all cases: biochemical, Plasmodium falciparum
purified protein [1] = substrate: CC(C)=CCOP(=O)(O)OP(=O)(O)O; conditions: Mg2+ ([…] MgCl2 in assay) allylic substrate; DMAPP, GPP, and FPP all compete for binding to the free enzyme active site
purified protein [2] = substrate: C=C(C)CCO[P@@](=O)(O)OP(=O)(O)O; conditions: Mg2+ ([…] MgCl2 in assay) second substrate
purified protein [3] = substrate: CC(C)=CCC/C(C)=C/CC/C(C)=C/CO[P@@](=O)(O)OP(=O)(O)O; conditions: Mg2+ ([…] MgCl2 in assay) allylic substrate; DMAPP, GPP, and FPP all compete for binding to the free enzyme active site
purified protein [4] = substrate: CC(C)=CCC/C(C)=C/COP(=O)(O)OP(=O)(O)O; conditions: Mg2+ ([…] MgCl2 in assay) allylic substrate; DMAPP, GPP, and FPP all compete for binding to the free enzyme active site

B1: farnesyl diphosphate/geranylgeranyl diphosphate synthase (rPfFPPS) (Plasmodium falciparum 3D7) (protein)
chain: MENEQNNQDSENGLDYFRSMYDRYRDVFINHINDYVLEDDIKIIISKYYKLLFDYNCLGGKNNRGILVILIYEYVKNRDINCNEWEKVACIAWCIEILQASFLVADDIMDKGETRRNKHCWYLLKDVEIKNAVNDVFLLYNAIYKLLDVYLRNDNCYLDLITSFREATLKTIVGQHLDTNIFSDKYSHIDKDIDVNNINISQENKININMLNFKVYQNIIIHKTAYYSFFLPIVCGMQMGGISLDNLLYKKVENIAILMGEYFQVHDDYIDTFGDSKKTGKVGSDIQNNKLTWPLIKAFELCSQPEKEDIIRNYGKDNVTCIKFINDIYEHYNIRDHYVEYEKKQKMKILEAINQLHHEGIEYVLKYVMDILFTGA
notes: full length protein expressed as a GST fusion protein
**Q.** What does the source list for B1?
**A.** Km (purified protein [1]): 68 ± 5 µM; Vmax (purified protein [1]): 0.453 µmol/min/mg; Km (purified protein [2]): 2.4 ± 0.3 µM; Vmax (purified protein [2]): 0.156 µmol/min/mg; Km (purified protein [3]): 2.06 ± 0.4 µM; Vmax (purified protein [3]): 0.327 µmol/min/mg; Km (purified protein [4]): 7.8 ± 1.3 µM; Vmax (purified protein [4]): 0.341 µmol/min/mg
